Assay results taken from article PMC5424160 (2017).

Molecular target: GST-CDK9 (Homo sapiens (Human), UniProt P50750)
Test: GST pull-down

Chain of GST-CDK9 (P50750 whole entry): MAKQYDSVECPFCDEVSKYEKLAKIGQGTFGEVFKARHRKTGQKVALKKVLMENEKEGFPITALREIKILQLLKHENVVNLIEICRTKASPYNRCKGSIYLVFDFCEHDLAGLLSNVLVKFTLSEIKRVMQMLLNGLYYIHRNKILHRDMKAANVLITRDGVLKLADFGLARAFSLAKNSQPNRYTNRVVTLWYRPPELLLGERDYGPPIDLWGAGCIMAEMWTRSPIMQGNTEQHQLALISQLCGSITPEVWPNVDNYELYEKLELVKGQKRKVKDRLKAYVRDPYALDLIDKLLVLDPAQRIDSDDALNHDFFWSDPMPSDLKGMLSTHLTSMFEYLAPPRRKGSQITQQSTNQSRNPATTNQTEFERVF

B1: His-Menin (protein)
chain: MGLKAAQKTLFPLRSIDDVVRLFAAELGREEPDLVLLSLVLGFVEHFLAVNRVIPTNVPELTFQPSPAPDPPGGLTYFPVADLSIIAALYARFTAQIRGAVDLSLYPREGGVSSRELVKKVSDVIWNSLSRSYFKDRAHIQSLFSFITGTKLDSSGVAFAVVGACQALGLRDVHLALSEDHAWVVFGPNGEQTAEVTWHGKGNEDRRGQTVNAGVAERSWLYLKGSYMRCDRKMEVAFMVCAINPSIDLHTDSLELLQLQQKLLWLLYDLGHLERYPMALGNLADLEELEPTPGRPDPLTLYHKGIASAKTYYRDEHIYPYMYLAGYHCRNRNVREALQAWADTATVIQDYNYCREDEEIYKEFFEVANDVIPNLLKEAASLLEAGEERPGEQSQGTQSQGSALQDPECFAHLLRFYDGICKWEEGSPTPVLHVGWATFLVQSLGRFEGQVRQKVRIVSREAEAAEAEEPWGEEAREGRRRGPRRESKPEEPPPPKKPALDKGLGTGQGAVSGPPRKPPGTVAGTARGPEGGSTAQVPAPTASPPPEGPVLTFQSEKMKGMKELLVATKINSSAIKLQLTAQSQVQMKKQKVSTPSDYTLSFLKRQRKGL
  binding result: no binding
